A word on the Kd: it is the concentration at which binding is half-saturated.

Our source for the Kd values is paper PMC10786891, “Massively parallel profiling of RNA-targeting CRISPR-Cas13d”.

Residue numbers refer to the chain shown, from its start. Numbers in names are those of the source.

B1: target 1 insC 3' of 17,insA 3' of 10 (mixed)
RNA 1: CACCCGUGCAAAAAUGCAGGGGUCUAAAACUGAGCGGAUAACCUCUCUAUGG
RNA 2: GGGAAUGGAUCCACAUCUACGAAUUCGUACCAUAGCAGAGGUUAAUCCGCUCACCGAGAUCGGAAGAGCACACGU
B2: target 1 C7G,A16C (mixed)
RNA 1: B1 RNA 1
RNA 2: GGGAAUGGAUCCACAUCUACGAAUUCGUACCAUAGCGAGGUUAUGCGCUCACCGAGAUCGGAAGAGCACACGU
B3: target 1 insC 3' of 18,insU 3' of 4 (mixed)
RNA 1: B1 RNA 1
RNA 2: B1 RNA 2 with G35C, C36G, A45U, U46C, C48G, G49C, C50U
B4: target 1 insA 3' of 11,insG 3' of 8 (mixed)
RNA 1: B1 RNA 1
RNA 2: B1 RNA 2 with C36A, A37G, G38A, A39G, G41U, U42A, A45U, U46G
B5: target 1 insG 3' of 21,insC 3' of 9 (mixed)
RNA 1: B1 RNA 1
RNA 2: B1 RNA 2 with A32G, U33A, A34U, G35A, C36G, A45C
B6: target 1 insG 3' of 21 (mixed)
RNA 1: B1 RNA 1
RNA 2: GGGAAUGGAUCCACAUCUACGAAUUCGUACCGAUAGAGAGGUUAUCCGCUCACCGAGAUCGGAAGAGCACACGU
B7: target 1 C4U,C7A (mixed)
RNA 1: B1 RNA 1
RNA 2: B2 RNA 2 with C36A, G45A, C48U
B8: target 1 insG 3' of 14,insC 3' of 9 (mixed)
RNA 1: B1 RNA 1
RNA 2: B1 RNA 2 with C36A, A37G, G38A, A39G, A45C
B9: target 1 insC 3' of 15,insA 3' of 11 (mixed)
RNA 1: B1 RNA 1
RNA 2: B1 RNA 2 with C36A, A37G, G38C, U43A, A44U
B10: target 1 insU 3' of 20,insU 3' of 14 (mixed)
RNA 1: B1 RNA 1
RNA 2: B1 RNA 2 with A34U, G35A, C36G, G40U, U42G, A44U
B11: target 1 C6A,G12U (mixed)
RNA 1: B1 RNA 1
RNA 2: B2 RNA 2 with C36A, G40U, G45C, C46A
B12: target 1 A14G,U19C (mixed)
RNA 1: B1 RNA 1
RNA 2: B2 RNA 2 with U33C, C36A, A38G, G45C
B13: target 1 insC 3' of 20,insG 3' of 16 (mixed)
RNA 1: B1 RNA 1
RNA 2: B1 RNA 2 with U33C, A34U, G35A, C36G, A39G, G40A, U42G, A44U
B14: target 1 insG 3' of 10,insU 3' of 2 (mixed)
RNA 1: B1 RNA 1
RNA 2: GGGAAUGGAUCCACAUCUACGAAUUCGUACCAUAGAGAGGUUGAUCCGCUCUACCGAGAUCGGAAGAGCACACGU
B15: target 1 insA 3' of 21,insA 3' of 2 (mixed)
RNA 1: B1 RNA 1
RNA 2: GGGAAUGGAUCCACAUCUACGAAUUCGUACCAAUAGAGAGGUUAUCCGCUCAACCGAGAUCGGAAGAGCACACGU
B16: target 1 insU 3' of 14,insG 3' of 2 (mixed)
RNA 1: B1 RNA 1
RNA 2: B14 RNA 2 with G39U, U41G, G43U, U52G
B17: target 1 del5,del11 (mixed)
RNA 1: B1 RNA 1
RNA 2: GGGAAUGGAUCCACAUCUACGAAUUCGUACCAUAGAGAGGUAUCCCUCACCGAGAUCGGAAGAGCACACGU
B18: target 1 insC 3' of 17,insU 3' of 7 (mixed)
RNA 1: B1 RNA 1
RNA 2: B1 RNA 2 with A45U, U46C, C47U
B19: target 1 insC 3' of 15,insU 3' of 12 (mixed)
RNA 1: B1 RNA 1
RNA 2: B1 RNA 2 with C36A, A37G, G38C, A44U
B20: target 1 del8,del11 (mixed)
RNA 1: B1 RNA 1
RNA 2: B17 RNA 2 with U43C, C45G
B21: target 1 insU 3' of 22,insU 3' of 7 (mixed)
RNA 1: B1 RNA 1
RNA 2: B15 RNA 2 with C31U, A32C, C47U, G48C, C49G, U50C, C51U, A52C
B22: target 1 U3G,C7G (mixed)
RNA 1: B1 RNA 1
RNA 2: B2 RNA 2 with C36A, U49G
B23: target 1 insC 3' of 14,insG 3' of 2 (mixed)
RNA 1: B1 RNA 1
RNA 2: B14 RNA 2 with G39C, U41G, G43U, U52G
B24: target 1 C4A,C7G (mixed)
RNA 1: B1 RNA 1
RNA 2: B2 RNA 2 with C36A, C48A
B25: target 1 insU 3' of 20,insG 3' of 8 (mixed)
RNA 1: B1 RNA 1
RNA 2: B1 RNA 2 with A34U, G35A, C36G, A45U, U46G
B26: target 1 U8A,U11C (mixed)
RNA 1: B1 RNA 1
RNA 2: B2 RNA 2 with C36A, U41C, U44A, G45C
B27: target 1 insG 3' of 19,insU 3' of 2 (mixed)
RNA 1: B1 RNA 1
RNA 2: B15 RNA 2 with A33U, U34G, A52U
B28: target 1 A9C,G12U (mixed)
RNA 1: B1 RNA 1
RNA 2: B2 RNA 2 with C36A, G40U, A43C, G45C
B29: target 1 insU 3' of 15,insA 3' of 7 (mixed)
RNA 1: B1 RNA 1
RNA 2: B1 RNA 2 with C36A, A37G, G38U, A45U, U46C, C47A
B30: target 1 G15A,A16G (mixed)
RNA 1: B1 RNA 1
RNA 2: B2 RNA 2 with C36G, G37A, G45C
B31: target 1 insG 3' of 14,insU 3' of 4 (mixed)
RNA 1: B1 RNA 1
RNA 2: B14 RNA 2 with U41G, G43U, C51U, U52C

The target in this data set is T1, EsCas13d, nuclease-dead (Eubacterium siraeum, UniProt B0MS50, R295A;H300A;R849A;H854A).
T1 sequence: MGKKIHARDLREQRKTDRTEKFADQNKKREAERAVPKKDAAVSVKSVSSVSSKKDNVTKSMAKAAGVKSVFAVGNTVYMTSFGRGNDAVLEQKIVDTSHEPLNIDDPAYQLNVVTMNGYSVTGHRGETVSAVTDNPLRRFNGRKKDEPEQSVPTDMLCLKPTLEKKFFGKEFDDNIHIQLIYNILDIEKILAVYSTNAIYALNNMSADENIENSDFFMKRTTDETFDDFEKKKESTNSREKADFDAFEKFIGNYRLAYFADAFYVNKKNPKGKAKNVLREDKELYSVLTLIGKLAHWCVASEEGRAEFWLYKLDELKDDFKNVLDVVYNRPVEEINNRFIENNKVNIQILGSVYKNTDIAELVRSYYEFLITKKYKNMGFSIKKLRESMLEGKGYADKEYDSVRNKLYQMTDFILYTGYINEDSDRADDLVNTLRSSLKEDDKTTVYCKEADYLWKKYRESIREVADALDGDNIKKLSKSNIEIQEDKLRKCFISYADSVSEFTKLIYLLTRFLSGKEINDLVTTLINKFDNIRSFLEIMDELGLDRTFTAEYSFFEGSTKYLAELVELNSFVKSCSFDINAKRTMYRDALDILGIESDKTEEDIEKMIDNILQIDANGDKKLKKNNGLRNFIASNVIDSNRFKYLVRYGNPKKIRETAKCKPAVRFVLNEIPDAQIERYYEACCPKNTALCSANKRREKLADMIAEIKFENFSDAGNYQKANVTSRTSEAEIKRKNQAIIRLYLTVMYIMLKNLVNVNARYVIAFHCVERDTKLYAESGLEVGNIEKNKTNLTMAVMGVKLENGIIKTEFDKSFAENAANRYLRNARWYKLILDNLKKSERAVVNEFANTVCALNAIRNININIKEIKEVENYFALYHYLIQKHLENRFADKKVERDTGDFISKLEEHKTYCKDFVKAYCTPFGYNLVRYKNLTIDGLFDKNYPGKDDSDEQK
As to the kind of experiment: crRNA (strand 1, pre-loaded); Mg2+; 40 mM Tris-HCl pH 7.5, 150 mM NaCl, 6 mM MgCl2, 1 mM DTT, 0.1% Tween-20, 0.2 mg/ml BSA; 25 C; 10 min per concentration, then washed. The settings on record: tags: His6-TwinStrep-SUMO cleaved; N-terminal SNAP kept (SNAP-Surface 488); label: 3' end held by stalled T7 RNA polymerase.
B1 yielded a Kd of 0.0432 ± 0.0034 µM.
In turn, B2 gave a Kd of 0.063 ± 0.006 µM.
In turn, B3 showed an equilibrium dissociation constant (Kd) of 0.0258 ± 0.0018 µM.
Molecule B4 yielded a Kd of 0.0356 ± 0.0023 µM.
Consider B5, for which the Kd is 0.083 ± 0.016 µM.
As to B6, the affinity, expressed as Kd, was 0.067 ± 0.01 µM.
The molecule B7 returned a Kd of 0.0112 ± 0.0008 µM.
Regarding B8, the Kd came out at 0.0127 ± 0.0006 µM.
With B9 the figure was 0.079 ± 0.018 µM.
Consider B10, for which the Kd was determined as 0.053 ± 0.021 µM.
Then B11, with 0.0107 ± 0.0005 µM.
On to B12, for which the Kd was found to be 0.063 ± 0.014 µM.
As for B13, the dissociation constant (Kd) came out at 0.0118 ± 0.0009 µM.
With B14 the figure was 0.0247 ± 0.0017 µM; with B15, 0.0177 ± 0.001 µM.
With B16 the figure was 0.044 ± 0.007 µM; with B17, 0.03 ± 0.0015 µM; with B18, 0.057 ± 0.006 µM.
With B19 the figure was 0.0146 ± 0.0009 µM; with B20, 0.0257 ± 0.0017 µM.
As to B21, the Kd was 0.043 ± 0.004 µM.
As for B22, the affinity, expressed as Kd, was 0.00604 ± 0.00033 µM.
Consider B23, for which the Kd is 0.062 ± 0.023 µM. Against the preceding molecule, the Kd is about 10-fold higher.
B24: the Kd stood at 0.0096 ± 0.0004 µM.
For the molecule B25, binding was characterised by a dissociation constant (Kd) of 0.0204 ± 0.0016 µM.
In the case of B26, the equilibrium dissociation constant (Kd) is 0.0126 ± 0.0009 µM.
B27 had a Kd of 0.057 ± 0.013 µM.
Consider B28, for which the Kd came out at 0.0193 ± 0.0012 µM.
On to B29, for which the Kd came out at 0.0082 ± 0.0006 µM.
On to B30, for which the Kd is 0.051 ± 0.005 µM.
For B31, binding was put at a Kd of 0.0117 ± 0.0011 µM.
